Results reported in US20260049148A1, “PROTEASE-CLEAVABLE MOIETIES AND METHODS OF USE THEREOF” (CytomX Therapeutics, Inc., priority 2022, published 2026).
Square brackets hold non-standard residues; d marks the D form. Ends that are not written are not given here. * marks the point of attachment. Dnp = O=[N+]([O-])c1ccc(*)c([N+](=O)[O-])c1; Mca = COc1ccc2c(CC(=O)*)cc(=O)oc2c1

Assays:
Experiment in all cases: Internally quenched peptide probe cleavage assay
Type in all cases: biochemical
Conditions in all cases: 20 μM internally quenched peptide probe, 20 nM protease, 37° C.
[1] = molecular target: MMP14 (Homo sapiens, UniProt P50281)
From the text: (§1) The study provided herein evaluated the cleavability kinetics (i.e., pM/s and kcat/KM (M^−1s^−1)) of CMs with matrix metalloprotease (MMP) 2 (MMP2), MMP9, and MMP14. The CM AIALY (SEQ ID NO: 5) was presented in an internally quenched peptide probe format, rather than included in an activatable antibody format. In the internally quenched probe, the CM sequence was positioned between a 7-methoxycoumarin-4-acetyl (MCA) fluorophore and a 2,4-dinitrophenyl (DNP) quencher such that cleavage of the CM sequence produces a fluorescence signal. The probe was of the following design: (MCA)-[…](DNP)-D-Arg (SEQ ID NO: 160). The cleavage rates (pM/s) were measured using 20 μM internally quenched peptide probe and 20 nM MMP2, MMP9, or MMP14. Cleavability kinetics (i.e., pM/s and kcat/KM (M^−1s^−1)) were determined in 96- or 384-well plate format at 37° C. in the following buffers: 50 mM Tris-HCl (pH 7.5), 10 mM CaCl2), 150 mM NaCl, 0.05% (w/v) Brij-35 for MMP2 and MMP9 or 50 mM HEPES (pH 6.8), 10 mM CaCl2), 0.5 mM MgCl2, 0.05% (w/v) Brij-35 for MMP14. Cleavability kinetics were determined on an Infinite 200 PRO (Tecan) multimode plate reader using a fluorescence excitation wavelength of 320 nm and an emission wavelength of 405 nm.

[2] = molecular target: T1, MMP2 (Homo sapiens, UniProt P08253)
T1 sequence (P08253 110-660): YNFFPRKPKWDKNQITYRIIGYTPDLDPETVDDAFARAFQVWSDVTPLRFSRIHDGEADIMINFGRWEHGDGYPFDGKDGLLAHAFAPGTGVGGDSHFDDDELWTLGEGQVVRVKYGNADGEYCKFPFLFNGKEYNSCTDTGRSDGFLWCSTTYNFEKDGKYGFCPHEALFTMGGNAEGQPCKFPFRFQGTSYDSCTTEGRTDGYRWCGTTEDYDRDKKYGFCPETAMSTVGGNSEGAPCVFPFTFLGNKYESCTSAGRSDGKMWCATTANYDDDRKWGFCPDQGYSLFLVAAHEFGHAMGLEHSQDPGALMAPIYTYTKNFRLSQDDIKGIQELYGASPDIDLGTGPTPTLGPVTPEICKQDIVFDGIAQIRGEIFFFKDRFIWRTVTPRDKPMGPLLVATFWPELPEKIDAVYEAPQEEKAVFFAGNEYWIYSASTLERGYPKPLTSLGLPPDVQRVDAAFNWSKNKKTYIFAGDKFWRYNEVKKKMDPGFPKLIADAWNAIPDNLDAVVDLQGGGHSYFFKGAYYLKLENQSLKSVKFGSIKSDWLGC
From the text: as §1

[3] = molecular target: MMP9 (Homo sapiens, UniProt P14780)
Chain of MMP9 (P14780 94-707): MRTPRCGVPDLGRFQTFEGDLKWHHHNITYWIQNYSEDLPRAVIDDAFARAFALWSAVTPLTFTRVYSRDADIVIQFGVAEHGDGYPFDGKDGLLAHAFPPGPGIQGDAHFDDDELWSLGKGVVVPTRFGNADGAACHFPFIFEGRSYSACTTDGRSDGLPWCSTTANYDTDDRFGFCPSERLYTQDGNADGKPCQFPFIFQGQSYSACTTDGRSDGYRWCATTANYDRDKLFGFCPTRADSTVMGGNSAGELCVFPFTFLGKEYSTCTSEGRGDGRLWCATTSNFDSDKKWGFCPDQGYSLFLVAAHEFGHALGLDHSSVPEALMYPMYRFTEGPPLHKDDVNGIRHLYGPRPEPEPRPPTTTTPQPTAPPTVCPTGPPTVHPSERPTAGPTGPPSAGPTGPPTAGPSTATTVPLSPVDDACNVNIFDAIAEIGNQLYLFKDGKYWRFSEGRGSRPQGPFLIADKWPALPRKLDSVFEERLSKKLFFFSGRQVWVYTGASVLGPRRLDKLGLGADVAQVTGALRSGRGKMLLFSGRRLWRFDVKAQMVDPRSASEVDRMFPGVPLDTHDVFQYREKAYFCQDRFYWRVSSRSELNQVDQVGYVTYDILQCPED
From the text: as §1

Substance: (MCA)-Gly-Ser-Ala-Ile-Ala-Leu-Tyr-Gly-Gly-Ser-Lys (DNP)-D-Arg (Mca-GSAIALYGGSK(Dnp)[dR])
- Probe Cleavage (pM/s) MMP14 [1]: 145 pM/s
- Probe Cleavage (pM/s) MMP2 [2]: 135 pM/s
- Probe Cleavage (pM/s) MMP9 [3]: 87.7 pM/s
